Experiment: soluble on expression in E. coli; label from the status in PepcDB or PDB records

Soluble on expression in E. coli, not soluble:
AHHHHHHGSKPKVFITRAIPENGINMLEEEFEVEVWEEEREIPREKLLEKVKDVDALVTMLSERIDQEVFENAPRLRIVANYAVGYDNIDVEEATRRGIYVTNTPDVLTNATADHAFALLLATARHVVKGDKFVRSGEWKRKGIAWHPKWFLGYELYGKTIGIVGFGRIGQAIARRAKGFNMRILYYSRTRKSQAEKELGAEYRPLEEVLKESDFVILAVPLTKETMYMINEERLKLMKPTAILVNIARGKVVDTKALIKALKEGWIAGAGLDVFEEEPYYNEELFSLDNVVLTPHIGSATFEAREAMAELVARNLIAFKRGEIPPTLVNKEVIKIRKPGFNEQ
NLLIQELCQAVINHFVRYLNINLGALYVSNEVESSLHLLSGYALSKAKKEMPAIRFGDGIVGQVAQERRLLVLENIPGENFVLESGLGDIQPSHILIAPILYQERMLGVIELGSLEPFTENHKEYMSHVMDSIAIAITSAHAREKVRELLEETQR
MPDGAQIQGLRPNGQSMEADMKLAVVTGQIVCTVRHQGLAHDKLLMVEMIDAQGNPDGQCAVAIDSIGAGTGEWVLLVSGSSARQAHRSELSPVDLCVIGIVDEVVAGGKVVFHKLEHHHHHH
SLAKYLELSMGFEEVAYRGLETNSRRLASHVVRNGNILFEIINTLESVAEHYPTVPMSKEEALSIKLDYSADEAHILKSLKEKIIKLTAEIVDENLDRYKYAMDIKAAKENLERSIINSTNFTAAISTIRKSINECVETSKKAIQDNFESFLIQEFVKIHGEGVMDISFNVLDVDSAFQKAIESGAYIIKLPQTMSDVHGSVKLATIAVPYTDIHHTLIQNKDYSGPFLPNYTKSIIEKPETYMHQLESLPPIRLDCIDHCVENYSWNQMMEHARFYANIFGFHKYWSVDEKDVFTGETALKSIVMASSNGKVKMPINEPAKGRKKSQIEEFYDFNGGPGVQHIALKTNDIIATVTSLRKRGIEFNPASQKYYDTLKQRLINDDIILKEDFNSIQNLNILVDYDPETRNNASKTCNYILQIFTKPLHDRPTLFIEIIQRRHHNGFGKGTFKGLFETIEAQQKLRGTLVSSDEG
MGSDKIHHHHHHMKVAIVIHDLKGGGAEKMMMRLANAISKQHHEVDLVLLTNGGTNKDLLDNGVNLIELNSLRTASSVPRLRQYLKINSPDRVLSALTHVNVITFIACLSLGWLSRLHCSERNAFSFDKDVNKSPLIKFAYFLAPFLYRISPNPVIAVSLGVALDLIETTVVCPKNVINLPNPTLNDNYKTHIFLAPSHPWLSDKTKPVIVGLGRLAQQKGFSDLINAFALVREKIDSRLIIFGEGELRIKLQTQIDNLGLTDSVSLFGYVRAPMDEVHSADVFVLSSLFEGSPNALVEAMASRCKVVSTRCPCGPDEILIQGALGILVPVKSPNKLAEAIICSLLDADYDFENQLDKIERFTANNSASAYLSAMGIHGV
MGHHHHHHSHMSASYISDPVIAGTNMTWSQEKQSLLMQGEILVETRSHTAWGGAVSACMYLPLRRSQVWQQITDYPRWVQYFPDITKSEVLQRGEVKRLYQAAQKAFFFFTAQVEIYLNVVEVIGHKIQFRMEKGTFVDFTANLELKDCGDGTLLIYGVQATPNIPVPSIFIQQAMNFELPTNMRKMRQVISNSVNS
MPKYYEDKPQGGACAGLKEDLGACLLQSDCVVQEGKSPRQCLKEGYCNSLKYAFFECKRSVLDNRARFRGRKGY
MGSDKIHHHHHHMSSTHTGIEWTDKTWNPTTGCDKVSPGCRYCYAEALTERFPQSFPTGFKLNLHPERLEQPKRWRTPSRIFVNSMSDLFHEDVPFSFLQEIFSIMRETPWHIYQILTKREENLVDLAPKLEWTENIWMGVSVESQRYTYRIDALRKVPAAVRFLSCEPLLESLNLDLQNIDWVIVGGESGYNHRPVKPEWIREILQQTREAEVAFFFKQWGGKHSKAGGRMLDDHTWEEMPKAWRKHIIKWQKKFHGQPKLHELEQKYLMSTK
DGTVVNYVGFQRDITERKEHERRLKALSESVQDLLQADTREEVAEIGVETARTVLGLEANTIHLYNEAERTLEPVAASDGIYDLLEDLPTFTPGDSIAWRVYESGDALAVDDVHADPDIYNPDTPIKSELYLPLGRHGILLAGSGTNAAFDQR
MGSDKIHHHHHHMSHGAGEPYFLTEMSDMAVAGCHVMAKPGGAICNIDCTYCFYLEKEALYPERNKNWRMSDETLEQFIRQHIAAQSGDRIDFAWQGGEPTMMGLPFFRRVVALCEKYGDGRKITHALQTNGILVNDEWARFFAEQHFLIGLSIDGPASLHNHYRFNRAGKGTHEQVVAAMARLKAHHVDFNTLTVVGKHNVGHAADVYEFLLAAGSRFIQFIPLVERMSTDNSSVLNLVMPGESAATLAPWTVPSWQYGEFLNQIFDIWVRRDVDRVYVQMFDVALAAWTAQQPVLCVHSETCGHAFALESNGDLYNCDHFVYPEHLLGNIHQHSIKALNNSERAIAFGEAKRETLTADCRRCDYRFVCHGGCPKHRFAVSPSGHPAHNYLCAGYKHFFQHVTPYMNVWRELLAQGYPMASIMRWLAQDARKDTGAVSRNHPCPCGSGKKYKKCCGKA
MKCNMCPRACNVDRNVNTGFCGMTNDIYAARAALHMWEEPCISGEHGSGAVFFSGCTLRCIFCQNSEIAAAQVGKKITVERLSDIFLELQDKCANNINLVTATHFVPQVAEALVKAKNKGLVIPVVYNSSAYENVSTLNMLDGLVDVYLPDMKYIDSRLSAEYSKAPDYADVAKAAIHEMVRQTGKLEFFIEDDELVKSGRVEAGIMKKGVIVRHLVLPGTTKDSKAVIKYLIDTYGDDIYISIMSQYTPFDRLKKHPLLSRKVTRKEYNSVVDYAIDCGINNGFIQEGDVAEESFIPEFDYEGI
MGTVLFEDKASETKGSDIYHRIIPDAESYIKEQARTVLATLYNSPEDSITPVNKIHYTLEDIEGISAKGGGNGDVTIFYSTRHIEKSFAENDTAKLFFETRGVLLHELTHAYQLEPQGIGSYGTNRVFWAFIEGMADAVRVANGGFDGPNARPKGGNYMDGYRTAGYFFVWLRDNKDPEFLRKFNRSTLEVIPWSFDGAIKHILGTEYSIDELWHEYQVAVGDIQVLEHHHHHH

Soluble on expression in E. coli, soluble:
GMTRIASHRGGTLEFGDSTPHGFTATAAMALEEVEFDLHPTADGAIVVHHDPTLDATTDMTGAIVDMTLAKVKTATIRYGAGSHPMTLEELCALYVDSHVNFRCEIKPGVDGLPYEGFVALVIAGLERHSMLERTTFSSFLLASMDELWKATTRPRLWLVSPSVLQQLGPGAVIETAIAHSIHEIGVHIDTADAGLMAQVQAAGLDFGCWAAHTPSQITKALDLGVKVFTTDRPTLAIALRTEHRMEASV
GSHMSQVEKDNTQALIPTMNMARQLSEASAWELFAAQNLTSADNEKMWQAQGRMLTAQSLKINALLQALREQGFDTTAIEQQEQEISRSLRQQGELVGQRLQLRQQQQQLSQQIVAAADEIARLAQGQANNATTSAGATQAGIYDLIEQDQRQAAESALDRLIDIDLEYVNQMNELRLSALRVQQMVMNLGLEQIQKNAPTLEKQLNNAVKILQRRQIRIEDPGVRAQVATTLTTVSQYSDLLALYQQDSEISNHLQTLAQNNIAQFAQFSSEVSQLVDTIELRNQHGLA
MRVLITGATGGLGGAFARALKGHDLLLSGRRAGALAELAREVGARALPADLADELEAKALLEEAGPLDLLVHAVGKAGRASVREAGRDLVEEMLAAHLLTAAFVLKHARFQKGARAVFFGAYPRYVQVPGFAAYAAAKGALEAYLEAARKELLREGVHLVLVRLPAVATGLWAPLGGPPKGALSPEEAARKVLEGLFREPVPALLEV
MDGELRAQGLRKRYGPKEVVRGVDLALRRGEIVALFGPNGAGKTTTFYMVVGFIRPTGGRIYLKGQEITALPMYKRARLGLGYLPQEPSAFRRMTALENLLAVLEFQPLSKKERLEKAKALLEELSIYHLRDRMAYSLSGGERRRLEIARALATDPDFLLLDEPFTGVDPKNVREIQKVIAELRERRGVGVFITDHAVRETLAITDRVYLMYDGQVLFHGDPETFAKDQGVRRHYLGEDYEL
ASCETTVTSGDTMTYSTRSISVPASCAEFTVNFEHKGHMPKTGMGHNWVLAKSADVGDVAKEGAHAGADNNFVTPGDKRVIAFTPIIGGGEKTSVKFKVSALSKDEAYTYFCSYPGHFSMMRGTLKLEE
MTDALEQSVLALEGTVSVLKDSVESLKCANEPSTNLASTMLQTKRVFRLVPEYDVERSKLDLIEEVEPLVRTLGDKLRKSMGRMQRELDTLQQTYELNDLRLKKNISMDDDDALNSPDMGQEYEGRDADDVVMMASSTNEELEELKKLKEKKKQLENKLEILKQK
MELADVGAAASSQGVHDQVLPTPNASSRVIVHVDLDCFYAQVEMISNPELKDKPLGVQQKYLVVTCNYEARKLGVKKLMNVRDAKEKCPQLVLVNGEDLTRYREMSYKVTELLEEFSPVVERLGFDENFVDLTEMVEKRLQQLQSDELSAVTVSGHVYNNQSINLLDVLHIRLLVGSQIAAEMREAMYNQLGLTGCAGVASNKLLAKLVSGVFKPNQQTVLLPESCQHLIHSLNHIKEIPGIGYKTAKCLEALGINSVRDLQTFSPKILEKELGISVAQRIQKLSFGEDNSPVILSGPPQSFSEEDSFKKCSSEVEAKNKIEELLASLLNRVCQDGRKPHTVRLIIRRYSSEKHYGRESRQCPIPSHVIQKLGTGNYDVMTPMVDILMKLFRNMVNVKMPFHLTLLSVCFCNLKALNTAK
MGHHHHHHSHVFKIEDKIGEGTFSSVYLATAQLQVGPEEKIALKHLIPTSHPIRIAAELQCLTVAGGQDNVMGVKYCFRKNDHVVIAMPYLEHESFLDILNSLSFQEVREYMLNLFKALKRIHQFGIVHRDVKPSNFLYNRRLKKYALVDFGLAQGTHDTKIELLKFVQSEAQQERCSQNKSHIITGNKIPLSGPVPKELDQQSTTKASVKRPYTNAQIQIKQGKDGKEGSVGLSVQRSVFGERNFNIHSSISHESPAVKLMKQSKTVDVLSRKLATKKKAISTKVMNSAVMRKTASSCPASLTCDCYATDKVCSICLSRRQQVAPRAGTPGFRAPEVLTKCPNQTTAIDMWSAGVIFLSLLSGRYPFYKASDDLTALAQIMTIRGSRETIQAAKTFGKSILCSKEVPAQDLRKLCERLRGMDSSTPKLTSDIQGHASHQPAISEKTDHKASC
MAKAPDIVDLLTLAVDRNASDLVITVGLPPMIKIDGEFHPTEHEALTPQDTRRLMYALMDEKQQRHFEEEKELDFSFSLPAKGRYRVNVFLQRGSVGGVLRVVPTVVKSFEELGLPKNIGELALTPRGLLLITGPTGSGKSTTLASMIDYINERRRAHIVTIEDPIEFFHRHKTSIINQREIGSDTHGFHKALRSVLRQAPDVILVGEMRDYETISAAITAAETGHLVMGTLHTNSAPETIDRIIDVFPEAQQEQVRVQLANNLVAVMTQQLLPKAFGGGRVLAYELMIATSAVRALIREGKSHQLVSVIQTGGQYNMITMDACLADLYKRKLITYEMGQSRAVDPKEFARLAGAAAPAASTNTGAQRRA
MASTKSELIERLATQQSHIPAKTVEDAVKEMLEHMASTLAQGGSGGLTKAEMSEYLFDKLGLSKRDAKELVELFFEEIRRALENGEQVELSGFGNFDLRDKNQRPGRNPKTGEDIPITARRVVTFRPGQKLKSRVENAGGGERIEIRGFGSFSLHYRAPRTGRNPKTGDKVELEGKYVPHFKPGKELRDRANIYGGSGHHHHHH
